# Test results from the RNAGym collection of RNA variant scans (doi:10.1073/pnas.2313332121).
# Fewer inactive variants are shown than the library holds.
# B1: TPR 5TU (parent)
# chain: GGAUCUUCUCGAUCUAACAAAAAAGACAAAUCUGCCACAAAGCUUGAGAGCAUCUUCGGAUGCAGAGGCGGCAGCCUUCGGUGGCGCGAUAGCGCCAACGUUCUCAACUAUGACACGCAAAACGCGUGCUCCGUUGAAUGGAGUUUAUCAUG
# Variants of: B1
# Assay: polymerase ribozyme fitness, log enrichment relative to wild type (log ratio); higher = more active; in vitro selection for triplet polymerase activity
# In short: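 Each subunit of a heterodimeric triplet polymerase ribozyme was represented by a PCR-built, transcribed mutant library that underwent triplicate single-round in vitro selection with frozen incubation at −7 °C. Extended constructs were recovered by gel excision, streptavidin-bead capture and RT-PCR, and Illumina sequencing of input and output libraries kept genotypes with ≥10 input reads and ≥1 read per output. Fitness is the logarithm of genotype enrichment relative to wild-type enrichment, from inverse-variance-weighted replicate averages, with a logarithm base of 2.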
row,Variant,polymerase ribozyme fitness (log ratio)
1,A89U A122U,-0.615
2,A89G C95A G136U,-3.75
3,G92U U101G C131U,0.547
4,U90A C99U U111C,-4.13
5,A91U A106G,-4.01
6,C93G A98U C114A,-3.85
7,G92A A97G A122U U148C,-3.63
8,A89G C95U A142C,-2.81
9,G86U C103A A121G,-2.73
10,G86A U139G,-1.36
11,A91G G152A,-3.71
12,G92C A138G G140A,≤ -4.2
13,A89G C93A,-3.94
14,U90A A107G,≤ -4.2
15,C87A A97U,≤ -4.2
16,G92C A122C A150G,-2.28
17,A91U U127G,≤ -4.2
18,G86A G100A,-3.89
19,A89C G92U,-1.92
20,G92C U135G,-3.12
21,G92C U135C,-2.88
22,C87U A89U,-1.2
23,C85U C118U,-0.662
24,G86A A121U,-0.51

row,Variant,polymerase ribozyme fitness (log ratio)
1,C85U C116G U145A,-2.57
2,C93A A115C,-3.22
3,A91U U134G A137U,≤ -4.2
4,C87U C131A G140A,-3.61
5,C85U C87G G140C,≤ -4.2
6,G88U C95U A121U A122G G124A,≤ -4.2
7,G92A G126U,-2.26
8,C87A A97G A142C,≤ -4.2
9,C93G G94U C108G,≤ -4.2
10,C93G U146G,-3.41
11,C87A A107G A115U U135C A142C,≤ -4.2
12,A89C G117U,-0.705
13,C85U A150G,-1.76
14,C85U A150C,-2.26
15,C87G C105A,≤ -4.2
16,C87U C116G G152U,-3.11
17,G92C C95A,-2.12
18,C85U C99G,-1.07
19,C85U C99U,-2.35
20,C93U A98G C103A,-2.73
21,C93A C132G A138C G140U G141C,≤ -4.2
22,A91U A147U,-3.99
23,G92U C103U G136U,-3.43
24,C93A A106C,-2.63

row,Variant,polymerase ribozyme fitness (log ratio)
1,G88A G92A C132G U148A,≤ -4.2
2,C87U A89C U139G,-2.56
3,C93A A137U,≤ -4.2
4,G92A G141C A147U,-3.44
5,A91G C123G,-2.82
6,A91G C123U,-2.7
7,G92C A98U G143A,-1.77
8,C93A A119G A120U,-2.53
9,G88U C95G C125U,≤ -4.2
10,C85U A142C,-1.12
11,G86A C105G A138U,≤ -4.2
12,G88U C108G C118U A120U,≤ -4.2
13,C87U C99G,-1.97
14,A89U C99G A142U,-2.38
15,U90C U102C A107U,≤ -4.2
16,G92U C105U A107U A110C A138C,≤ -4.2
17,C85U G88A U151G,≤ -4.2
18,G88U C95G,-3.65
19,G86U A106C,-1.79
20,C85U G92A G143U,-4.16
21,G86C C87G C108G,≤ -4.2
22,G86A C123A U148G,-4.02
23,C85U C131U G143U,-2.54
24,C85U G94U A97U,-0.116

row,Variant,polymerase ribozyme fitness (log ratio)
1,C85U C103G C108U A115U G143A,≤ -4.2
2,A91U A98G U102G C105U,≤ -4.2
3,G92C C99A A138C,≤ -4.2
4,G92A C116U C125U U134C,≤ -4.2
5,C93G A122U,-2.98
6,C87U U90C,-3.33
7,C87G G141U,-3.61
8,C85U U134C,-1.76
9,C87A G126A,-4.04
10,C85U A147G,-1.25
11,A91U A120U,≤ -4.2
12,G88U G124A G128U U135C,≤ -4.2
13,C93G C114U,-3.97
14,C93A G141A,-1.74
15,C85U A150U G152A,-0.481
16,A91U U145G,≤ -4.2
17,A91C A98G A122U U144C A147U A150C,≤ -4.2
18,A89U A97U U101A A107C A121C G140U U148G,≤ -4.2
19,G86A A89G C103G A115G G126C,≤ -4.2
20,G92U A121G G143C U145G,-3.44
21,G88U A97U U102G G117U U139G,≤ -4.2
22,A89U C96U A138G U146G,≤ -4.2
23,C87G A107G,≤ -4.2
24,C85U G126A A142G,-0.307

row,Variant,polymerase ribozyme fitness (log ratio)
1,C93A C95A U104A G141C,≤ -4.2
2,G92U A138G,-3.48
3,G92A C103A G126A,-3.74
4,A89G A110U U151A,-3.58
5,G86U G100A C131U,≤ -4.2
6,G86A U104G,-2.29
7,C87G A91C U127G A142U,≤ -4.2
8,U90C C96U,-3.69
9,C87A C103A C114U,≤ -4.2
10,G92A G152U,-3.58
11,C87G C93A,-3.63
12,G88A C96A C103U,≤ -4.2
13,A89U A150C,-3.66
14,G86A A122U,-1.33
15,A89C A107U,≤ -4.2
16,A89C A107C,-4.06
17,C93G A98C G143C,-4.05
18,C85U C93U C131A,-2.94
19,G88U C95G U144C,≤ -4.2
20,A91G U144A,-3.08
21,G86U C118U A119G,-4.19
22,A91U C93A A122U G143C,≤ -4.2
23,C87U C118U,-0.642
24,A89G A97G A113U C118A A120C G141C,≤ -4.2

row,Variant,polymerase ribozyme fitness (log ratio)
1,G86U A115G,-2.39
2,A91G C118U,-3.15
3,A91G C118G,-3.49
4,C87U C116U C118A,-0.495
5,C87U A122U,-0.5
6,G86C G117A,-1.84
7,C87A G117C G136U G141U,≤ -4.2
8,G86C U151G,≤ -4.2
9,G86U G92C A98G A150U,-2.26
10,A89U U90C G94U C114U G117U G133U,≤ -4.2
11,C87G A97U G117C,≤ -4.2
12,C85U U102G,-3.32
13,C87A U101C,-4
14,C85U C93U U134G,-4.16
15,G86A C103U,-1.01
16,C87A C93G C108G,≤ -4.2
17,C87G C114G A137G,≤ -4.2
18,C87G C93U C99A U134G G141U,≤ -4.2
19,C93A U102A A137C,≤ -4.2
20,C93G A119U,-3.51
21,G92C U148G,-3.89
22,G92C U148C,-2.56
23,C87U U102C A147C,-2.24
24,A91G A142C,-3.5

row,Variant,polymerase ribozyme fitness (log ratio)
1,A91U U111C,≤ -4.2
2,C87U A89G C103U A115C C123U G143U,≤ -4.2
3,C93U A122U,-0.696
4,C87U G136C,-3.65
5,A91C A106G,≤ -4.2
6,U90C G126U,-3.66
7,A91C C114U U139C,≤ -4.2
8,C87U C96U,-1
9,C87U C96A,-1.2
10,G92A G124A,-2.65
11,A89G U134C,-0.372
12,C85U U101G C125U,-0.351
13,C87A A119U A147C,-4.05
14,C93G C125G A150U,-4.06
15,G92U A147C,-0.377
16,C85U G140U,-2.51
17,C85U C118U A142U,-1.02
18,C85U G136C,-3.29
19,G86U C123G,-1.55
20,G86U C123A,-1.99
21,C85U G94C G143A,-1.78
22,G88A C96G,-3.74
23,G86C G126U C131A,≤ -4.2
